The DeepSol protein solubility set

Experiment: soluble on expression in E. coli; label from the status in PepcDB or PDB records

Sequence	soluble on expression in E. coli
MKIVVIGATGIIGKAIVAELNPRHEIISASYKNSDIQVDITSKQSIDAMYKKLNTIDAIVLATGKVHFAALKDMGEDDYKIGLTNKLMGQVNVVLAGLEYINDNGSFTLTSGILNRDPILYGSSAAMVNGALDGFIKSAALEMPRGIRINGVSPTVITEAMENYGPYFRGYEPVSAARAALAYSKSIEGAQTGQVYCVGLEHHHHHH	not soluble
RGSHHHHHHGSAVQVTFTVQKGSDPKKLVLDIKYTRPGDSLAEVELRQHGSEEWEPLTKKGNVWEVKSSKPLVGPFNFRFMSKGGMRNVFDEVIPTAFSIGKTYKPEE	soluble
GSSGSSGMQAGKPILYSYFRSSCSWRVRIALALKGIDYEIVPINLIKDGGQQFTEEFQTLNPMKQVPALKIDGITIVQSLAIMEYLEETRPIPRLLPQDPQKRAIVRMISDLIASGIQPLQNLSVLKQVGQENQMQWAQKVITSGFNALEKILQSTAGKYCVGDEVSMADVCLVPQVANAERFKVDLSPYPTISHINKELLALEVFQVSHPRRQPDTPAELRT	soluble
MSLAPINPYPLLQACQRQRVSDGAIAPVLAGTESSDRLLVLIWPQLGDFDSLEYAQWLQREQDQIQQLGLTIRAVGIGDRDSGQRFCEFTGFPADQLFVDPTASLHQELELYPGLQLSIPGFSPAAKAWLNLLLMCAGIGSPGTLAEVLRGYRGDRSAPQLIAAEETVQAAPLPPIKGNFFNLAGGSGFQRPMELATLRLRNMAESLGHWRTYVPDTSYMTQRGGTFLFDRDRQLIYEHRDHGILGFSATMNRPLSFLDNLPTPSTASEGHHHHHH	soluble
MNGLATSLGKGQESAIGGSSAIGEYIRPLPQPGDRPEPLSAKPTFLSRSGSARCRSESDMENERNSNTSKQRYSGKVHLCVARYSYNPFDGPNENPEAELPLTAGKYLYVYGDMDEDGFYEGELLDGQRGLVPSNFVDFVQDNESRLASTLGNEQDQNFINHSGIGLEGEHILDLHSPTHIDAGITDNSAGTLDVNIDDIGEDIVPYPRKITLIKQLAKSVIVGWEPPAVPPGWGTVSSYNVLVDKETRMNLTLGSRTKALIEKLNMAACTYRISVQCVTSRGSSDELQCTLLVGKDVVVAPSHLRVDNITQISAQLSWLPTNSNYSHVIFLNEEEFDIVKAARYKYQFFNLRPNMAYKVKVLAKPHQMPWQLPLEQREKKEAFVEFSTLPAGPPAPPQDVTVQAGVTPATIRVSWRPPVLTPTGLSNGANVTGYGVYAKGQRVAEVIFPTADSTAVELVRLRSLEAKGVTVRTLSAQGESVDSAVAAVPPELLVPPTPHPRPAPQSKPLASSGVPETKDEHLGPHARMDEAWEQSRAPGPVHGHMLEPPVGPGRRSPSPSRILPQPQGTPVSTTVAKAMAREAAQRVAESSRLEKRSVFLERSSAGQYAASDEEDAYDSPDFKRRGASVDDFLKGSELGKQMVS	not soluble
SLNVNFFVTCIGDALKSRMARDSVLLLEKLGCRVNFPEKQGCCGQPAINSGYIKEAIPGMKNLIAALEDNDDPIISPAGSCTYAVKSYPTYLADEPEWASRAEKVAARMQDLTSFIVNTLGVVDVGASLQGRAVYHPSCSLARKLGVKDEPLTLLKNVRGLELLTFAEQDTCCGFGGTFSVKMAEISGEMVKEKVAHLMEVRPEYLIGADVSCLLNISGRLQREGQKVKVMHIAEVLMSR	soluble
MGSDKIHHHHHHMKAISNDKPQGVCATDFASVLGEENAVCLWENIEIGQQKRIQQAVTSGKPPTCIVYPRTQQQLAAVIAKAYSHNWRVLPCGSGSKLSWGGLAKGVDVVVGTERINQLIEHAVGDLTVTVEAGMKFSDLQALLAKSRQFLALDPTAPQSATIGGIVATGDTGSLRQRYGSVRDQLLGVTFVRADGEIAKAGGRVVKNVAGYDLMKLLTGSYGTLGFISQLTFRVYPLSEASGTVVLTGSAEAVSQAADILRGSALTPVQADLLSTKLVSSLGLGEGLGLIARFQSISESVKEQSNRVLEVGQKLGLDGAIFADADEASLWQRLQERIHSTATESVITCKIGVLPTAAVDILTQVGLGLIHISSGLGLLQLEDKNQVLKVREQLRSAGSDGTQANSGFLTILEAPMAVKEQVDVWGYNGNALPLMRRIKEQFDSKNILSPGRFVGGI	not soluble
MGSDKIHHHHHHMNQSKTAIVIDSSANIAPEIVRKYHFTIVNQPVMFGKHVYHENMDIDSDEFYRMLKLEKYHPTASQIPMKEMQEVFSNLAQAGYEAALCIGLSGGLSGFINSVSASVPAIKDLQVYPYDSGSILAGVEKVAILASHLLDNGVDIHEVLHQMRKYRRQTQAYIAVNNIKELQNMGNISNRTSLVGSFFGMRPILTINHQGRLEMVGKERQMKNAMEAIEEIFDKQLVDHTNLVVTVIDANDVDRSMQWQSTLKAKYPGMQVESQQIGPYVGTYTGSKAIGLIWSPKL	not soluble
KGSYDLIFGDKNTKNYYAKFAKDHQTHLYQKIKESKDEQFRFVETQETTNNLGN	soluble
MAHHHHHHMEKTIITLLPVVEKAPKENMERVLDVFRHYLKRYGADHYIYNAVMQAAAFAKNYEQAEQLFKEMETLGLEPNAQSYVNMMLAAKLCGLPPEKSEAYFKRAVKDGAMQSVMRMDTEFRMWMDQLDRLGSFTASSGYLSVNEEGAKPMPRDMWAIWGWHRSESKFISRRDLIMQQVRARVHSGKELVGTVYTKTRRQPWAKFNGMLRHDYNGPSYRAPTIFPDAPEYTNEAGHKAF	not soluble
MRDVQKQYNKQEGFVQGYSIIDSYSEDEIPKDGKRSTIQLVHEMGLEKARRIYGENYQCLVATQCDGKSGLYHNHLISNAVGNDGKSQRGDMTKWTKLAEISDQVMIDYGYTPLDKNNWRLNKTRKAEARSKGEYVSPNERKARKNGMTLAKDEVREQIQKVIDDETVKSFEDFKQMLNEEYQIGVEDAGTKDGENIKYSFSYTNKKGETSEKTIKAKTLSKEDYTLSGVKSKIEDKLLETGNFEINENDLTQQQQQMLSNLIVPEDDEDELELEFDDESLAFLDQINEEVKEYGREKHSSKATRNNQRVEKQHRDHQRHVENNERSTTRTKSSSKRAKDKDAGFELG	not soluble
MTTYLIIGANRVGQLVARQLATESATVRLLHDGKETLPSDLATQVTELTGDLTQEATYTAALQDQPIIFSALTGMDVDLAFEALFDAQYHQRLTFQRFVMLSTAGVDQEVTGDLAYPGITDVAEYLKQQRYAAKLVDEAEFPYTILRPVTLADSPRRDPQIIKEGAAVPAGTVSRETVAQVAVSLLQAGGADYQSLAICLEHHHHHH	not soluble
MGHHHHHHSHMYSLNQEIKAFSRNNLRKQCTRVTTLTGKKIIETWKDARIHVVEEVEPSSGGGCGYVQDLSSDLQVGVIKPWLLLGSQDAAHDLDTLKKNKVTHILNVAYGVENAFLSDFTYKSISILDLPETNILSYFPECFEFIEEAKRKDGVVLVHCNAGVSRAAAIVIGFLMNSEQTSFTSAFSLVKNARPSICPNSGFMEQLRTYQEGKESNKCDRIQENSS	not soluble
MIKKDYAQIKETLYTETLENGLKVYLLPKNDFQKTYGLFTTDYGSIDNTFVPIGQEEMIEVPDGIAHFLEHKMFEKEDGDVFQKFGQQGASANAFTSFTKTSYLFSTTDQVTQNLETLLDFVQSPYFTKETVEKEKGIIGQEIQMYLDDPNWRLFFGILGNLYPKHPLHIDIAGTVASIAEITAEDLYTCYNTFYHPSNMTLFVVGKMDPEALMAFIRENQAAKEFPAAQPIRRHFPEETAADIVKESAIEMTVTRAKVLVGLKGLDEVPTTGRDLMKYQVTVNLLLQLLFGNTSQNYLALYDEGLLDDSFSYDFNLDRSFHFADIGGDSEQPEVLAERIEAILLSATTSPELTEENLSLLKKKMIGKYFQSLNSLEYIANQFSQSLFGETTLFDKIEVIESIQLADVRQVAETFIREEGLSRFYMYPKGETEQ	not soluble
MDADASTITPEELDFIRQRALRRFDSIVPTAGREGTEIASDIFKGRTLAIYTSGGDSQGMNSAVRSITRMAIYCGCKVYLIYEGYEGMIEGGDFIKEATWNTVSDIIQQGGTIIGSARSSEFRTREGRLKAATNLINRGIGRLVCIGGDGSLTGANTFRLEWTDLVQELVKNQRVTAAAAKKIPYIQIVGLVGSIDNDFCGTDMTIGTDSALQRIISSIDAVVATAQSHQRAFVIEVMGRHCGYLALVAALASEADFCFIPEWPAPENWRDVLCDKLSQMRSEGQRLNIIIVAEGAIDRDGKAITAEDVKTAVKEKLKYDTRVTILGHVQRGGAPSAFDRLLGCRMGAEAVFALMEMTEESEPCVISIDGNVMVRVPLLKCVERTQMVQKAMADKDWTTAVMLRGRSFQRNLETYKLLTKMRTVEKDNLSEGHKFNVAVINVGAPAGGMNAAVRSYVRMALYHQCTVYGIEDSFEGLANGSFKQFKWSDVTNWAMNGGSFLGTQKSLPTEKTMPQLAAQLKKHNIQALLLVGGFEAYHSTIILAENREKYPEFCIPMCVIPCTISNNVPGTMVSLGSDTAINEICQMIDKIKQSATGTKRRVFIVETMGGYCGYLATLSALSSGADNAYIFEEPFTVQDLSDDVDVILSKMEVGAKRYLVVRNEWADKNLTTDFVQNLFDSEGKKNFTTRVNVLGHVQQGGSPTPFDRNMGTKLAARALEFLLIQLKENLTADNKVIAKSAHTATLLGLKGRKVVFTPVQDLKKETDFEHRLPSEQWWMALRPLLRVLARHRSTVESSAILESVEEESADSHMF	not soluble
MSNQYGDKNLKIFSLNSNPELAKEIADIVGVQLGKCSVTRFSDGEVQINIEESIRGCDCYIIQSTSDPVNEHIMELLIMVDALKRASAKTINIVIPYYGYARQDRKARSREPITAKLFANLLETAGATRVIALDLHAPQIQGFFDIPIDHLMGVPILGEYFEGKNLEDIVIVSPDHGGVTRARKLADRLKAPIAIIDKRRPRPNVAEVMNIVGNIEGKTAILIDDIIDTAGTITLAANALVENGAKEVYACCTHPVLSGPAVERINNSTIKELVVTNSIKLPEEKKIERFKQLSVGPLLAEAIIRVHEQQSVSYLFS	soluble
MHSITTALENLTRQLSQEIPATPGLCVFDAPFPLNDAFDALSWLASQSSFPQFYWQQRNGDEEAAVLGAITVFSSLDLAQRFLRQHAQPDLRIWGLNAFEPKEGYLLLPRLEWRRSGGTATLRLHLHSDVSLRDDARQAKAFLASLVGIKPVPALRLSLTSEQHWPDKDGWVKLIQQATHTIAQEAFDKVVLARATDLQFSRPVNAAAMMASSRRLNLNCYHFFMAFSADTAFLGSSPERLWRRRETALRTEALAGTVANHPDNHKAWQLGEWLMKDDKNQRENMLVVEDICQRLQNCTHSLDVLPPQVLRLRKVQHLRRCIWTALNQADDTLCLHQLQPTAAVAGIPREPARCFIEQHEPFEREWYAGSAGYLSTRQSEFCVTLRSAKVTANVVRLYAGAGIVRGSDPEQEWQEIDNKAAGLRTLLQMDA	not soluble
MAHHHHHHMDKKRSIVKKPERGSFLLDHNSECTPIKNDYLKCLKEHNNDHVSCREYSKEYFICRMDKNLLERQSLNDLGFSENETNHESRIKHFKDVYSYNVYNETMESFPKGRALKRTDTASGAVFVEEKLTQGKRDNKADMKPARGDDFLLLNLRNDKEGEQKINGKVFEITQEKKIAVKRKEEEGYLAGKEYIKTLVEKKKRHPLFSYNIFKSSNT	soluble
MAHHHHHHMSDEDHDFAHQGGGDNASKTYPMAAGALKKGGYVCINGRPCKVIDLSVSKTGKHGHAKVSIVATDIFTGNRLEDQAPSTHNVEVPFVKTFTYSVLDIQPNEDPSLPSHLSLMDDEGESREDLDMPPDAALATQIKEQFDSGKEVLVVVVSAMGTEQVLQTKNAAEK	soluble
ARAEQFTTSLLSIISNNNLLAKATSESIMGAAMKAAVLNLPIEPSLGFAYVVPYNRNYKDGNRWITVNEAQFQIGYRGLIQLAQRSGQVRNIEHGIIYEEEFLGYDKIRGQLKLTGDYVDSGVVKGYFASLELISGFYKMIFWPKEKVYEHAKKYSKTFDKKTGDFKPGTPWATEFDPMAIKTLLKELLSKYAPLSVEMQDALEADNADSTIVIPKDVTPQETNSLDDLIGTQ	not soluble
SHMLEDPCTSKKVRAARTLLAKNLSFNITEDELKEVFEDALEIRLVSQDGKSKGIAYIEFKSEADAEKNLEEKQGAEIDGRSVSLYYTGEKGGTRG	soluble
